# Source: US10801046B2, “Methods and materials for biosynthesizing multifunctional, multivariate molecules via carbon chain modification” (INVISTA NORTH AMERICA S.A.R.L., priority 2016, dated 2020)
# B1: SEQ ID NO: 128: Vibrio fluvialis aminotransferase, positive control of the in vivo screen (protein, listed as Vibrio fluvialis)
# chain: MNKPQSWEARAETYSLYGFTDMPSLHQRGTVVVTHGEGPYIVDVNGRRYLDANSGLWNMVAGFDHKGLIDAAKAQYERFPGYHAFFGRMSDQTVMLSEKLVEVSPFDSGRVFYTNSGSEANDTMVKMLWFLHAAEGKPQKRKILTRWNAYHGVTAVSASMTGKPYNSVFGLPLPGFVHLTCPHYWRYGEEGETEEQFVARLARELEETIQREGADTIAGFFAEPVMGAGGVIPPAKGYFQAILPILRKYDIPVISDEVICGFGRTGNTWGCVTYDFTPDAIISSKNLTAGFFPMGAVILGPELSKRLETAIEAIEEFPHGFTASGHPVGCAIALKAIDVVMNEGLAENVRRLAPRFEERLKHIAERPNIGEYRGIGFMWALEAVKDKASKTPFDGNLSVSERIANTCTDLGLICRPLGQSVVLCPPFILTEAQMDEMFDKLEKALDKVFAEVA
# How the values were obtained:
# [1] = Aminotransferase activity, reverse direction (7-aminoheptanoate to 7-oxoheptanoate), L-alanine formation by RP-HPLC; format: biochemical; conditions: cell free extract, 10 mM substrate, 25° C., 4 h, against empty vector control, FIG. 48
# Experimental: (§1) A sequence encoding an N-terminal His-tag was added to the genes from Chromobacterium violaceum, Pseudomonas syringae, Rhodobacter sphaeroides, and Vibrio Fluvialis encoding the aminotransferases of SEQ ID NOs: 116 (GenBank Accession No. AAQ59697.1), 126 (GenBank Accession No. AAY39893.1), 127 (GenBank Accession No. ABA81135.1), and 128 (GenBank Accession No. AEA39183.1), respectively such that N-terminal HIS tagged aminotransferases could be produced. Each of the resulting modified genes was cloned into a pET21a expression vector under control of the T7 promoter and each expression vector was transformed into a BL21 [DE3] E. coli host. The resulting recombinant E. coli strains were cultivated at 37° C. in a 250 mL shake flask culture containing 50 mL LB media and antibiotic selection pressure, with shaking at 230 rpm. Each culture was induced overnight at 16° C. using 1 mM IPTG.
# (§2) The pellet from each induced shake flask culture was harvested via centrifugation. Each pellet was resuspended and lysed via sonication. The cell debris was separated from the supernatant via centrifugation and the cell free extract was used immediately in enzyme activity assays.
# Enzyme activity assays in the reverse direction (i.e., 7-aminoheptanoate to 7-oxoheptanoate) were performed in a buffer composed of a final concentration of 50 mM HEPES buffer (pH=7.5), 10 mM 7-aminoheptanoate, 10 mM pyruvate and 100 μM pyridoxyl 5′ phosphate. Each enzyme activity assay reaction was initiated by adding cell free extract of the aminotransferase gene product or the empty vector control to the assay buffer containing the 7-aminoheptanoate and incubated at 25° C. for 4 h, with shaking at 250 rpm. The formation of L-alanine from pyruvate was quantified via RP-HPLC.
# [2] = Aminotransferase activity, forward direction (7-oxoheptanoate to 7-aminoheptanoate), pyruvate formation by RP-HPLC; format: biochemical; conditions: cell free extract, 10 mM substrate, 10 mM L-alanine, 25° C., 4 h, against empty vector control, FIG. 49
# Experimental: as §1
# The pellet from each induced shake flask culture was harvested via centrifugation. Each pellet was resuspended and lysed via sonication. […]
# Enzyme activity in the forward direction (i.e., 7-oxoheptanoate to 7-aminoheptanoate) was confirmed for the aminotransferases of SEQ ID NO: 126 (GenBank Accession No. AAY39893.1), SEQ ID NO: 127 (GenBank Accession No. ABA81135.1), and SEQ ID NO: 128 (GenBank Accession No. AEA39183.1). […] The formation of pyruvate was quantified via RP-HPLC.
# [3] = Aminotransferase activity, heptane-1,7-diamine to 7-aminoheptanal, L-alanine formation by RP-HPLC; format: biochemical; conditions: cell free extract, 10 mM substrate, 25° C., 4 h, against empty vector control, FIG. 50
# Experimental: A sequence encoding an N-terminal His-tag was added to the Chromobacterium violaceum, Pseudomonas aeruginosa, Pseudomonas syringae, Rhodobacter sphaeroides, Escherichia coli, and Vibrio fluvialis genes encoding the aminotransferases of SEQ ID NOs: 116 (GenBank Accession No. AAQ59697.1), 119 (RefSeq Accession No. NP_417544.5), 125 (GenBank Accession No. AAGO8191.1), 126 (GenBank Accession No. AAY39893.1), 127 (GenBank Accession No. ABA81135.1), and 128 (GenBank Accession No. AEA39183.1), respectively such that N-terminal HIS tagged aminotransferases could be produced. The modified genes were cloned into a pET21a expression vector under the T7 promoter. Each expression vector was transformed into a BL21[DE3] E. coli host. Each resulting recombinant E. coli strain were cultivated at 37° C. in a 250 mL shake flask culture containing 50 mL LB media and antibiotic selection pressure, with shaking at 230 rpm. Each culture was induced overnight at 16° C. using 1 mM IPTG.
# as §2
# Enzyme activity assays in the reverse direction (i.e., heptane-1,7-diamine to 7-aminoheptanal) were performed in a buffer composed of a final concentration of 50 mM HEPES buffer (pH=7.5), 10 mM heptane-1,7-diamine, 10 mM pyruvate, and 100 μM pyridoxyl 5′ phosphate. Each enzyme activity assay reaction was initiated by adding cell free extract of the aminotransferase gene product or the empty vector control to the assay buffer containing the heptane-1,7-diamine and then incubated at 25° C. for 4 h, with shaking at 250 rpm. The formation of L-alanine was quantified via RP-HPLC.
# [4] = Aminotransferase activity, N7-acetyl-1,7-diaminoheptane to N7-acetyl-7-aminoheptanal, L-alanine formation by RP-HPLC; format: biochemical; conditions: cell free extract, 10 mM substrate, 25° C., 4 h, against empty vector control, FIG. 51
# Experimental: The activity of the N-terminal His-tagged aminotransferases of SEQ ID NOs: 116 (GenBank Accession No. AAQ59697.1), 119 (RefSeq Accession No. NP_417544.5), 125 (GenBank Accession No. AAGO8191.1), 126 (GenBank Accession No. AAY39893.1), 127 (GenBank Accession No. ABA81135.1), and 128 (GenBank Accession No. AEA39183.1) (see Example 6) for converting N7-acetyl-1,7-diaminoheptane to N7-acetyl-7-aminoheptanal was assayed using a buffer composed of a final concentration of 50 mM HEPES buffer (pH=7.5), 10 mM N7-acetyl-1,7-diaminoheptane, 10 mM pyruvate and 100 μM pyridoxyl 5′ phosphate. Each enzyme activity assay reaction was initiated by adding a cell free extract of the aminotransferases or the empty vector control to the assay buffer containing the N7-acetyl-1,7-diaminoheptane then incubated at 25° C. for 4 h, with shaking at 250 rpm. The formation of L-alanine was quantified via RP-HPLC.
# [5] = In vivo aminotransferase activity screening, 7-aminoheptanoate by LC-MS; format: cell-based, Escherichia coli; conditions: in vivo conversion of 7-oxoheptanoate to 7-aminoheptanoate, 120 aminotransferases screened
# Outline: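 Aminotransferase library expressed in E. coli T7 Express lysY/Iq co-expressing sfp, CAR_Srot and BioC, grown overnight at 37° C in rich media with 0.4 mM IPTG and 1 g/L monomethyl heptanedioate, heptanedioate or no acid. Culture supernatants analysed by LC-MS for 7-aminoheptanoate or its monomethyl ester.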
molecule,measurement,setting,value
B1,acceptance of 7-aminoheptanoate as substrate,[1],accepted 7-aminoheptanote as substrate
same,"acceptance of 7-oxoheptanoate as substrate, forming 7-aminoheptanoate",[2],accepted 7-oxoheptanoate as a substrate
same,"acceptance of heptane-1,7-diamine as substrate, forming 7-aminoheptanal",[3],"accepted heptane-1,7-diamine as substrate"
same,"acceptance of N7-acetyl-1,7-diaminoheptane as substrate, forming N7-acetyl-7-aminoheptanal",[4],"accepted N7-acetyl-1,7-diaminoheptane as a substrate"
same,7-aminoheptanoate yield compared to the positive control (F2XBU9),[5],higher 7-aminoheptanoate yields
